The results in this text go back to the nanobody polyreactivity screen of Harvey et al. (2022).

The series can be described thus: yeast display, Sf9 membrane polyspecificity reagent, FACS + sequencing; frameworks hold sequencing errors. In short, it runs like this: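 Nanobodies came from a synthetic yeast display library in Saccharomyces cerevisiae BJ5465, induced with galactose for 36–48 hours and stained for 1 hour at 4 °C with 10% biotinylated, detergent-solubilized Sf9 membrane reagent. Cells were enriched on streptavidin microbeads and then FACS-sorted, with low and high (top ~1%) gates set on anti-HA fluorescence for expression and streptavidin fluorescence for reagent binding. Each polyreactivity label reflects the gate a clone came from. Genes were amplified by colony PCR, sequenced by MiSeq 2 × 250 and filtered by CDR length.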
Turning to “QVQVVQSGGGLVQAGGSLRLSCAASGSTFPGNAMGWNRQAPGKERELVASIRSSAASTYYADSVKGRFTISRDNAKNTVYLHMNSLKPEETAVYYWSVRSYRRFTNLSYRYDYWGQGTQVSVSS”, the “polyreactivity (PSR sort gate)” value is “high polyreactivity”. “QVRLVESGGGLFQAGGSLRISCAASGRIFNTYAMGWYRQAPGKERELVAAIRWSSGSTFYADSVKGRFTISRDYAKNTVYLQMNSLKPEDTAVYYCAADNWAVNAYYGYIYDYWGQGTQVTVSS”: the “polyreactivity (PSR sort gate)” value is “low polyreactivity”. As for “QVRLVESGGGLVQAGGSLRLTCAASGSTFTTYALGWYRQAPGKERELVAAISSGGDTKYADSVKGRFTISRDNAKNTIYLQMNSLIPEDTAVYYCAKRRYYRYYYWGQGTQVTVSS”, the entry is “high polyreactivity”; as for “QVTLVESGGGLVQAGGSLRLSCAASGFTFYIYAMGWYRQAPGKERELVAAISSSGTRTYYADSVKGRFTISRDHAKNTVYLQMNSLKPEDTAVYYCAAALGWYSAFGYWGQGTQVTVSS”, “high polyreactivity”. On to “QVWLQESGGGRVQACGSLRLSCAASGTIARDIFMGWYRQAPGKEREFVATIAQGGITNYADSVKGRFTISRDNAKNTVYLQMNSVKPGDTAVYYCAARDGNCYWFYYWGQGTQVTVSS”, for which the “polyreactivity (PSR sort gate)” value is given as “high polyreactivity”. On to “QVWLQESRGGLVQASGSLRLSCAASGTISRDIFMGWYRQAPGKEREFVATIAQGGITNYADSVKGRFTISRDNAKNTVYLLMISVKPGDTEVYYCAARDGNCYWFYYWGQGTQVTVSS”, for which the “polyreactivity (PSR sort gate)” value is “high polyreactivity”. With “QYQLEDSGGGVVQAGCSLRLSCAASGRTFAYYAMGWYRQAPGKERELVAAISSSGGRTYYADSVKGRFTISRDNAKKTVYLQMNSLIPEDTAVYYCAATSTSGVLYDYWGQGTQVTVSS”, the “polyreactivity (PSR sort gate)” value is “high polyreactivity”.

For the sequence “QYQLVESGGGLVQAGGSLRLSCAASGRTFYYNAMGWYRQAPGKETELVASITITDSTNYSDSVKGRFTISRDNANNTVYLQMNSLKPEDTAVYYCAKRGLGTSFYLSDYWGQGTQVTVSS”, the “polyreactivity (PSR sort gate)” value is “low polyreactivity”. Take “RDQHVESGGGLVQAGGSLRLSCAASGRTFVPYAMGWYRQAPGKERELVAAISSGGDTNYADSVKGRFTISRDNAKNTVYLQMNSLKPEDTAVYYFAKDLTQIYYGDDYWGQGTQVTVSS”: the “polyreactivity (PSR sort gate)” value is reported as “low polyreactivity”. As for “RVQLQESGGGLVQAGGSLRLICAASGTNFIRGDMGWYRQAPGKEREFVATIDNGSNTYYADSEKGRFTISRDNAKNAVYLQMNCLKPGDTAVYYCVVDYQLSGRLRYWGQGTQVTLSS”, the “polyreactivity (PSR sort gate)” value is given as “low polyreactivity”. With “RVQLQESGGGLVQEGGSLRLSCAPSSTISRDFYMGWYRQAPGKELEFVASITYGASTNYADSVKGRVTISRDNANNTVYLQMNSLKPEDTAVYYSNAKQQPYGGTDSDYWGQGTQVSVSS”, the “polyreactivity (PSR sort gate)” value is reported as “low polyreactivity”.

Consider “RVQLVESGGGLVQAGGSLRFSCAASGRIFPNNAMGWSSQAPGKARELVAAISRTGGSTYYADSVKGRFTISRDNAKNTVYLQMNSLKPEDTAVYYCAASHARWSPYYSRYYYWGQGTQVTGSS”, for which the “polyreactivity (PSR sort gate)” value is listed as “high polyreactivity”. As to “RVQLVESGGGLVQAGGSLRLSCAASGRIFAQYPMGWYRKAPRKERELLAAITTTGRTYYADSVKGRFTISRDNAKNTVYLQMNSLKPEDTAVSYCAVGYHAPNVSTSDPRYDYWGQGTQVTVSS”, the “polyreactivity (PSR sort gate)” value is reported as “low polyreactivity”.
